In the nanobody polyreactivity screen of Harvey et al. (2022):

Assay: yeast display, Sf9 membrane polyspecificity reagent, FACS + sequencing; frameworks hold sequencing errors
Outline: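 Using colony PCR, genes from sorted yeast display clones were amplified, then sequenced on MiSeq at 2 × 250 and filtered by CDR length. The clones had been stained with 10% biotinylated, detergent-solubilized Sf9 membrane reagent for 1 hour at 4 °C and sorted by FACS into low and high (top ~1%) gates on anti-HA and streptavidin fluorescence. Polyreactivity labels come from the gate of origin.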

Sequence	polyreactivity (PSR sort gate)
QVQLGESGGGLVEAGGSLRLSCAASGSTFNRYAMGWYRQAPGKERELVAAISFSGGRTYYADSVKGRFTISRDNAKNTVYLQMNSLKPEDTAVYYCAKVVYGYFTRAYTYNYWGHGTQVTVSS	high polyreactivity
QVQLVESAAGLVQAGGSLRLSCAASGRIFRYNTMGWYRQAPGKESELVAAITSGVRTNYADSVKGRFTISRDNAKNTVYLQMNSLKPEDTAVYYCAADPYWFFPNYDSWGQGTQVTVSS	low polyreactivity
QVQLVESGGGLVQAGGSLRLSCAASGSIFYQYAMGWNRQAPGKERELVAVINRSGSSTYYADSVKGRFTISRDNAKNTVYLQMNSLKPEDNAVYYCAAASKYSEYNYWGQGTEVTVSS	high polyreactivity
QVQLVESGGGLVQAGGSLRLSCAASGFTFGHYAMGWYRQAPGKERELVAAISIDGGRTYYADSVKGRFTISRDNAKNTVYLQMNSLKPEDTAVYYCAVPRWVYYTSDYDYWGQGTQVTVSS	high polyreactivity
QVQHVESGGGLVQAGGSLRLSCAASGRIFQHYPMGSYRQAPGKETEFVAAISSSSGSTYADSVKGRFTISRDNAKNTVYLQMNSLNPEDTAVYYCNRDYMPFKFYGGSHDMEYWGQGTQVTVSS	low polyreactivity
QVQLVESGGGLVQAGGSLRLSSAASGGTFGFNAMGWYRQAPGKERELVSGISSRGGSTYYADSVKGRFTISRDYAKNTVYLQMNSLKPEDTAVYYCNARQYPGRSWYRYDYWGQGTQVTVSS	high polyreactivity
QVELVESGGGLVQAGGSLRLSCAASGFTFNGTAMGWYRQAPGKDRELVAAMSRGGSPSYADSVKGRFTISRDNAKKTVYLPMNSLKPEATAVYYCAAVSYGRFRRYEYWVQGTQVTVSS	high polyreactivity
QVQLVESGVGLVQAGCSHRLSCAASGSTISAYDMGSYRQAPGKERELVAAITWIGGNTYYADSVKGRFTISRDNAKNTVYLQMNSLKPEDTAVYYCAAEEVPYDRDMDYWGQGTQVTVSS	low polyreactivity
QVQLVESGGGLVQAGGSLRLSCAASGSIFFDYAMGWDRQAPGKERQLVAAISWTGGSTYYADSVKGRFTISRDNAKNTVYLQMNSLKPEDTAVYYCNARYYSYSSPYDYWGQGTQVTVSS	high polyreactivity
QVQLVESGGGLVQAGGSLRLSCAASGSTFGRYAMGWYRQAPGKESELVAAISSSGGRTYYADSVKGRFTISRDNAKNTVYLQMNSLKPEDTAVYYCAAPGAQGLGLRGAGLDYWGQGTQVTVSW	high polyreactivity
QVQLVESGGGLVQAGGSLRLSCAASGSTFSTYAMGWYRQAPGKEREFVAAIRWSGGSTYYADSVKGRFTISRDNAKNTVYLQMNSLKREHTAVYYSAKGIRRWYGGCDYWGQGTKVTVSS	low polyreactivity
QVQLLESGGGLVQAGGSLRLSCAASGSIFYWNAMGWYIQARGKERELLAAINYSGDSTYDADSVKGAFTISRDNAKNTVYLQMNSLKPEDTAVYYCNFDYWGQGTQVTVSS	low polyreactivity
QVRLVESCGGLVQAGGSLRLSCAASGITFQYNAMGWYRQAPGKERELVATIRRGGITKYADSVKGRFTISRDNAKNTVYLQMNSLKPEDTAVYYCNADWVWRYSSDFDYWGQGTQVTVSS	low polyreactivity
QVQLVESGGGLVQAGGSLRLSCAASGSTVHYMGWYRQAPGKERELVAGISWSGGSTYYADSVKGRFTISRDNAKNTVYLQMNSLKPEDTAVYYCAADIKIRLYTTGDYWGQGSQVTVSS	low polyreactivity
QVQLVESGGGLVQAGGSLRLSCAASGRILRGYVMGWSRQAPGKERELVATITGRGGSTYYADSVKGRFTISRDNAKNTVYLQMNSLKPEDTAVYYCNKDGYPYFGRSEYWGQGTQVTVSS	low polyreactivity
QVQLVESGVGLVQAGGSLRLSCAASGRIFPGNVMGWYIQAPGKERELVAAISRGGGSTYYADSVKGRFTISRDIAKNTVYAQMNSLKPEDTAVYYCNVLRYQSRFRYDYWGLGTQVTVSS	high polyreactivity

Sequence	polyreactivity (PSR sort gate)
QVQLVESGGGLVQAGGSLRLSCAASGRTFAYNAMGWYRQAPGTERELVAAITGSGGRTYYADSVKGRFTLSRDNAKYTVYLQMNSLIPEDTAVYYCAVGLPSRYDYWGQGTQVTVSS	low polyreactivity
QVQLVESGGGLVQAGGSLRLSCAASGSIFGLNAMGWYRQPPGKERELVAAINSDGDTYYADSVKGRFTISRDNAKNTVYLQMNSLKPEDTAVYYCSADYYWDPFDSNFGHVPQEYESWGQGTQVTVSS	low polyreactivity
QVQLVESGGGLVQPGGSLRLSCAASGRTFGSYVMGWYRQAPWKQRELVATISRRGGTTYYADSVKGRVTISRDNAKNSVYLELLSLKPVDTAVYYCADKYFGTRYDYWGQGTQVTVSS	high polyreactivity
QVQLGESGGGLVQSGGSLRLSCAASGRTFCYYAMGWYRQAPGKERELVAAITNRGGNKYYADSVKGRFTISRDNAKNTVYLQMNSLKPEDTAVYYCAAYNRIYGYHTLYYWGQGTQVTVSS	high polyreactivity
QVQLVESGGGLVQAGGSLRLSCAASGSTFDGNAMGWYRQAPGKERELVAAISSSGGSTYYADSVKGRFTISRDNAKNTVYLQMNSLKPEDTAVYYCAAGGWSTLLSWFYRRYDYWGQGTQVTVSS	high polyreactivity
QVQLVESGGGLVQAGGSLRLSCAASGFTFSYYVMGWYRQAAGKERELVAAINRGGSTNYADSVKRRFTISRDNAKNTVYLQMNSLKPEDTAVYYCAARFPGYGYWGQGTEVTVSS	high polyreactivity
QVQLVESGGGLVQAGGSLRLRCAASGSIFWPYAMGWYRQAPGKERELVAGISSGGSTYYADSVKGRFTISRDNAKNTDYLQMNSLKPEDTAVYYCAARWQWLNGYYYWGQGSQVTVSS	high polyreactivity
QVHLVESGGGLVQAGGSLRLSCAASGRLSQNAMGGYRQAPGKERELVAAITFSGGSTYYADSVKGRFTISRDNAKNTVYLQMNSLKPEDTAVYYCAADDRPLYWRFPDEMDYWGQGTQVTVSS	low polyreactivity
QVQLVESGGGLVQAGCSLRISCAASGSIYATKAIGWYRQAPGKERELVASISSGGCSTYYADSVKARFTISRDNAKNTVYLQLNSLKPEDTAVYYCARRIGHGSRPYWLETWRYPYDYWGQGTQVTVSS	low polyreactivity
QVQLVESGGGLVQAGGSLRLSCAASGFTFYKYAIGWYRQAPGKERELVAGIRRGGTNYADSVKGRFTISRDNAKNTVFLQMNSLKPEDTAVYYCAADVRPYYSAYRGRYYYWGQGTQVTVSS	high polyreactivity
QVQLVESVGGLVQAGGSLRLSCAASGITFYWYAMGWYRQAPGKERELVASITGNGGGTSYADSVKGRFTISRDNAKNTVYLQMNSLKPEDTAVYYCNTSVGGKEYDSWGQGTQVTVSS	low polyreactivity
QVQLVESGGGLVQAGGSLRLSCAASGFILPWYVMGWYRQAPGKERELVAAISGTGGSTYYADSVKGRFTISRDNAKNTVYLQMNSLKPEDTAVYYCAAGAFYAGYYWEFYYWGQGTQVTVSS	high polyreactivity
QVQLVESGGGLVQAGGSLRLSCAASGSTLYAYAVGWYRQAPGKERELVAAIRTGGSTYYADSVKGRFTISRDNAKNTVYLQMNRLIPEDTAVYYCAADHGYQYGYWGQGTQVTVSS	low polyreactivity
QVQLVESGGGLVQAGGSLRLSCDASGSILWLNAMGWYRQAPGKERELVADITRGGSTYYADSVKGRFTISRDNAKNTVYLQMNSLKPEDTAVYYCAARLYGGYDWGQGTQVTVSS	high polyreactivity
QVQLVESGGGLVQAGGSLRLSCAASGRNFRSYVMGWYRQAPGKERELVASIRNRGGTTYYADSVKGRFTISRDNAKNTVYLQMNSLKPEDTAVYYCNAAPARTVYAQSSYVLYDYWGQGTQVTVSS	low polyreactivity
QVQLVESGGGLVQAGGSLRLSCAASGSIFNTYAMGWYRQAPGKERELVAAISRSGDSTYYADSVKGRFTISRDNAKNTVYLQMNSLKPEDTAVYYCATGRTDHGYYYWGQGTQVTVSS	high polyreactivity
